Measurements taken from the supplement of paper PMC10567573.

B1: KLHL12 (parent)
chain: REESLPNLLQYVRMPLLTPRYITD
B2: TRIM55 (parent)
chain: FQMEKIEHGYENMNHFTVNLNREE

Variants of: B1
Test: protein stability index of a GFP-peptide fusion (GPS, HEK-293T) (PSI 1-6); higher = more stable
Conditions: c terminus: a fixed tail appended
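Also: lentivirally expressed fusions sorted by FACS into six bins by GFP to DsRed ratio, PSI derived from sequencing read proportions per bin multiplied by bin number.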

Variant	protein stability index
Y11S	3.33
Y11K	2.87
Y11V	2.51
Y11F	2.92
Y11C	2.82
Y11Q	3.42
Y11G	3.52
Y11P	3.56
Y11W	1.96
Y11M	2.34
Y11R	3.21
Y11D	3.96
Y11A	2.76
Y11T	3.06
Y11I	2.68
Y11N	3.47
Y11E	3.9
Y11H	2.88
Y11L	2.09
L9Q	3.77
L9N	3.61
L9F	2.27
L9A	2.97
L9H	3.29
L9K	2.57
L9V	2.51

Variant	protein stability index
L9P	3.07
L9I	2.32
L9S	3.36
L9T	3.45
L9E	3.23
L9M	2.44
L9W	2.49
L9G	3.03
L9R	3.14
L9D	3.1
L9Y	2.62
L9C	3.33
R13A	1.49
R13C	3.21
R13D	2.48
R1T	2.19
R1A	2.23
R1Q	2.31
R1D	2.63
R1C	1.96
R1M	2.25
R1E	2.8
R1K	2.52
R1N	2.72
R1G	2.23
R1H	2.18

Variant	protein stability index
R1P	2.16
R1F	2.43
R1W	1.61
R1Y	1.82
R1I	1.83
R1S	2.7
R1V	2.35
R1L	2.83
S4E	2.72
S4M	2.21
S4R	2.5
S4V	1.82
S4D	2.56
S4T	2.34
S4F	2.15
S4N	1.93
S4G	2.69
S4Y	2.45
S4Q	2.51
S4A	2.65
S4I	2.16
S4C	2.71
S4P	2.79
S4L	1.89
S4W	1.9
S4H	2.51

Variant	protein stability index
S4K	2.41
L5S	2.8
L5C	2.79
L5Y	2.61
L5I	1.83
L5A	3.47
L5H	2.51
L5V	2.59
L5K	2.65
L5M	2.9
L5N	2.52
L5W	2.21
L5T	2.79
L5G	2.67
L5Q	2.81
L5R	2.52
L5F	2.16
L5D	3.15
L5P	2.75
L5E	3.4
V12W	1.81
V12N	3.1
V12P	3.45
V12R	3
V12F	1.86
V12T	3.01

Variant	protein stability index
V12K	2.81
V12S	3.16
V12M	2.33
V12A	3.16
V12Y	2.6
V12H	2.74
V12C	1.98
V12G	2.91
V12D	3.7
V12Q	3.07
V12E	3.85
V12L	1.86
V12I	2.77
P6R	2.59
P6Q	1.91
P6V	1.6
P6A	2.66
P6D	2.51
P6K	1.71
P6H	2.13
P6L	2
P6S	2.31
P6I	1.95
P6E	2.15
P6C	2.05
P6T	2.13

Variant	protein stability index
P6N	2.45
P6W	2.11
P6Y	2.58
P6F	1.93
P6G	2.28
P6M	2.11
L8I	2.41
L8V	2.53
L8D	3.75
L8Y	2.67
L8N	3.22
L8G	2.79
L8S	3.21
L8P	3.18
L8R	2.98
L8K	2.98
L8A	3.24
L8C	2.29
L8E	3
L8H	3.27
L8M	2.69
L8F	2.4
L8T	3.12
L8Q	3.17
L8W	2.12
E2C	3.52

Variant	protein stability index
E2D	2.38
E2N	2.51
E2G	3.19
E2I	2.5
E2L	2.47
E2R	2.85
E2S	3.42
E2P	2.56
E2V	2.63
E2K	2.31
E2Q	2.53
E2T	3.35
E2Y	2.83
E2F	2.4
E2H	2.92
E2A	3.56
E2W	3.14
E2M	2.4
N7C	2.35
N7E	2.34
N7P	3.19
N7T	2.1
N7M	2.03
N7S	2.26
N7D	2.93
N7H	2.44

Variant	protein stability index
N7G	2.63
N7Y	1.71
N7A	2.64
N7K	2.73
N7F	2.23
N7W	3.17
N7Q	2.65
N7L	2.01
N7V	2.07
N7I	1.9
N7R	2.3
E3D	2.2
E3Q	2.72
E3L	2.11
E3W	2.02
E3T	2.67
E3F	1.95
E3R	2.83
E3C	2.5
E3I	2.02
E3S	2.14
E3M	1.9
E3N	2.42
E3Y	1.71
E3K	2.78
E3V	2.45

Variant	protein stability index
E3H	2.23
E3G	2.56
E3P	2.19
E3A	2.54
Q10D	2.06
Q10A	2.47
Q10K	2.38
Q10N	2.05
Q10L	2.27
Q10T	2.28
Q10P	2.79
Q10F	2.22
Q10R	3.13
Q10G	2.45
Q10I	4.07
Q10Y	2.16
Q10E	2.41
Q10C	2.39
Q10S	2.33
Q10W	1.17
Q10M	1.56
Q10H	2.25

Variants of: B2
Test: as above
Conditions: c terminus: a fixed tail appended

Variant	protein stability index
E23C	1.67
E23P	2.29
E23H	1.77
E23I	1.64
E23V	2.62
E23N	2.87
E23G	2.28
E23D	3.09
E23A	1.77
E23K	2.26
E23S	2.67
E23Y	2.23
E23R	1.88
E23L	2.17
E23Q	2.39
E23F	1.88
E23T	1.92
E23M	2.27
L20R	3.01
L20H	3.23
L20I	2.64
L20A	3.2
L20C	2.33
L20S	3.2
L20G	3.43
L20F	2.71

Variant	protein stability index
L20N	3.5
L20Q	3.33
L20P	2.88
L20K	3.04
L20W	2.35
L20T	2.7
L20V	1.91
L20M	2.51
L20D	3.47
L20Y	2.42
L20E	3.53
E24N	2.33
E24K	2.57
E24L	3.02
E24M	1.57
E24Y	1.57
E24H	2.43
E24S	2.06
E24D	2.77
E24F	1.77
E24C	2.4
E24Q	3
E24R	3.3
E24P	2.37
E24I	1.98
E24V	2.49

Variant	protein stability index
E24T	2.12
E24G	1.97
E24A	2.27
E24W	2.1
N21R	2.51
N21C	1.82
N21I	2.59
N21W	1.13
N21E	3.54
N21D	3.65
N21L	2.2
N21V	2.4
N21S	3.08
N21F	2.07
N21M	2.1
N21Q	3.07
N21A	2.89
N21G	2.86
N21P	2.94
N21H	2.15
N21T	2.65
N21Y	2.5
N21K	2.87
R22C	3.09
R22Y	2.31
R22V	2.56

Variant	protein stability index
R22S	3
R22N	3.57
R22Q	3.1
R22E	3.77
R22A	2.73
R22G	2.67
R22D	3.32
R22T	2.99
R22I	2.4
R22W	2.59
R22M	2.44
R22H	2.64
R22L	1.96
R22F	1.98
R22K	3.75
R22P	2.99
N19V	2.29
N19T	2.27
N19W	2.09
N19Q	2.68
N19S	2.16
N19P	3.4
N19M	2.27
N19Y	1.86
N19L	2.22
N19R	2.4
